From patent US20240182592A1 (CHIA TAI TIANQING PHARMACEUTICAL GROUP, published 2024)

B1: anti-BCMA/anti-CD3 multispecific antibody PC3 (bispecific antibody, human IgG1, lambda, L234A L235A)
chain: QVQLVESGGGLVQPGGSLRLSCAASGFTFNSACMGWFRQAPGKGREGVSRIETGYGGTVYADSVKGRFTISRDNSKNTVYLQMNSLRAEDTAVYYCAAKRSWCTPTWWHELDYNYWGQGTQVTVSSGEPKSSDKTHTCPPCPAPEAAGGPSVFLFPPKPKDTLMISRTPEVTCVVVDVSHEDPEVKFNWYVDGVEVHNAKTKPREEQYNSTYRVVSVLTVLHQDWLNGKEYKCKVSNKALAAPIEKTISKAKGQPREPQVCTLPPSREEMTKNQVSLSCAVKGFYPSDIAVEWESNGQPENNYKTTPPVLDSDGSFFLVSKLTVDKSRWQQGNVFSCSVMHEALHNHYTQKSLSLSPGK
heavy: EVQLVESGGGLVQPGGSLRLSCAASGFTFNTYAMNWVRQAPGKGLEWVARIRSKYNNYATYYADSVKDRFTISRDDSKNTAYLQMNNLKTEDTAMYYCVRHGNFGNSYVSWFAYWGQGTLVTVSSASTKGPSVFPLAPSSKSTSGGTAALGCLVKDYFPEPVTVSWNSGALTSGVHTFPAVLQSSGLYSLSSVVTVPSSSLGTQTYICNVNHKPSNTKVDKKVEPKSCDKTHTCPPCPAPEAAGGPSVFLFPPKPKDTLMISRTPEVTCVVVDVSHEDPEVKFNWYVDGVEVHNAKTKPREEQYNSTYRVVSVLTVLHQDWLNGKEYKCKVSNKALAAPIEKTISKAKGQPREPQVYTLPPCREEMTKNQVSLWCLVKGFYPSDIAVEWESNGQPENNYKTTPPVLDSDGSFFLYSKLTVDKSRWQQGNVFSCSVMHEALHNRFTQKSLSLSPGK
light: QVQLVESGGGLVQPGGSLRLSCAASGYSSNVACMAWYRQAPGKGLEWVATIVADFGTTNYAASVKGRFTISQDNSKNTVYLQMNSLRAEDTAVYYCAATQRGGIDWCDEINYWGQGTLVTVSSGGGGSELVVTQEPSLTTSPGGTVTLTCRSSTGAVTTSNYANWVQQKPGQAPRGLIGGTNKRAPGTPARFSGSLLGGKAALTITGVQPEDEAEYYCALWYSNLWVFGGGTKLTVLGQPKANPTVTLFPPSSEELQANKATLVCLISDFYPGAVTVAWKADGSPVKAGVETTKPSKQSNNKYAASSYLSLTPEQWKSHRSYSCQVTHEGSTVEKTVAPTECS
notes: Trivalent; three chains; human IgG1 knobs-into-holes Fc
B2: anti-BCMA/anti-CD3 multispecific antibody BC24 (bispecific antibody, human IgG1, lambda, L234A L235A)
chain: QVQLVESGGGSVQAGGSLRLSCAASGYSSNVACMAWYRQAPGKEREWVATIVADFGTTNYAASVKGRFTISQDNAKNTVYLQMNSLKPEDSAMYYCAATQRGGIDWCDEINYWGQGTLVTVSSGGGGSGGGGSQVQLVESGGGSVQAGGSLRLSCAASGVTFNSACMGWFRQAPGKEREGVARIETGYGGTVYADSVKGRFTISRDNAKNTVYLQMNSLKPEDTAMYYCAAKRSWCTPTWWHELDYNYWGQGTQVTVSSGEPKSSDKTHTCPPCPAPEAAGGPSVFLFPPKPKDTLMISRTPEVTCVVVDVSHEDPEVKFNWYVDGVEVHNAKTKPREEQYNSTYRVVSVLTVLHQDWLNGKEYKCKVSNKALAAPIEKTISKAKGQPREPQVCTLPPSREEMTKNQVSLSCAVKGFYPSDIAVEWESNGQPENNYKTTPPVLDSDGSFFLVSKLTVDKSRWQQGNVFSCSVMHEALHNHYTQKSLSLSPGK
heavy: EVQLVESGGGLVQPGGSLRLSCAASGFTFNTYAMNWVRQAPGKGLEWVARIRSKYNNYATYYADSVKDRFTISRDDSKNTAYLQMNNLKTEDTAMYYCVRHGNFGNSYVSWFAYWGQGTLVTVSSASTKGPSVFPLAPSSKSTSGGTAALGCLVKDYFPEPVTVSWNSGALTSGVHTFPAVLQSSGLYSLSSVVTVPSSSLGTQTYICNVNHKPSNTKVDKKVEPKSCDKTHTCPPCPAPEAAGGPSVFLFPPKPKDTLMISRTPEVTCVVVDVSHEDPEVKFNWYVDGVEVHNAKTKPREEQYNSTYRVVSVLTVLHQDWLNGKEYKCKVSNKALAAPIEKTISKAKGQPREPQVYTLPPCREEMTKNQVSLWCLVKGFYPSDIAVEWESNGQPENNYKTTPPVLDSDGSFFLYSKLTVDKSRWQQGNVFSCSVMHEALHNRFTQKSLSLSPGK
light: ELVVTQEPSLTTSPGGTVTLTCRSSTGAVTTSNYANWVQQKPGQAPRGLIGGTNKRAPGTPARFSGSLLGGKAALTITGVQPEDEAEYYCALWYSNLWVFGGGTKLTVLGQPKANPTVTLFPPSSEELQANKATLVCLISDFYPGAVTVAWKADGSPVKAGVETTKPSKQSNNKYAASSYLSLTPEQWKSHRSYSCQVTHEGSTVEKTVAPTECS
notes: Trivalent: 1A10 VHH and 1A11 VHH in tandem on one Fc polypeptide, anti-CD3 Fab on the other; human IgG1 knobs-into-holes Fc

What was measured:
[1] = molecular target: T1, human BCMA on cells (human, UniProt Q02223 1-184); experiment: cell-based or functional assay
T1 sequence (looked up): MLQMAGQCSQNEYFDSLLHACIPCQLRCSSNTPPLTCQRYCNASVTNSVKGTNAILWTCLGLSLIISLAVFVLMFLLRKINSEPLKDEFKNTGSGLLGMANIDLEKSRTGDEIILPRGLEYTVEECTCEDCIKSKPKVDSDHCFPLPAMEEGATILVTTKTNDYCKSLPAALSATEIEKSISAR

[2] = molecular target: T1, human BCMA on cells; experiment: cell-based or functional assay; remark: listed apart in the source
[3] = molecular target: T1, human BCMA on cells; experiment: cell-based or functional assay; remark: listed apart in the source
[4] = molecular target: T1, human BCMA on cells; experiment: flow cytometry, MM1S cells
Procedure: (§1) NCI-H929 cells (BCMA+++), MM1S cells (BCMA++), and RPMI-8226 cells (BCMA+) in the logarithmic growth phase were taken, adjusted to a cell density of 5×10⁶-10×10⁶ cells/mL using RPMI medium (Hyclon, catalog No. SH30809.01) containing 2% FBS (fetal bovine serum), respectively, and seeded in a 96-well U-bottom cell culture plate (Costar, catalog No. 3799) at 50 μL per well. The test antibodies at different concentrations were prepared using the medium described above. […] The antibodies at different concentrations were added to the 96-well cell culture plate described above at 50 μL per well, mixed well and incubated at 4° C. for 1 h. The cells were washed with pre-cooled running buffer (MACS, catalog No. 130-091-221), and the supernatant was discarded. Pre-cooled fluorescent labeled goat anti-human IgG antibodies (Jackson, catalog No. 109-116-170) were added, and the cells were resuspended at 100 μL per well, mixed well and incubated at 4° C. for 30 min. After washing, 100 μL of pre-cooled running buffer was added to resuspend the cells. The cells were mixed well and collected while flowing on an Attune™ NxT flow cytometer, and the data was analyzed using Graphpad Prism5 software. FIGS. 7-9 and Table 11 show the binding ability of the anti-BCMA/anti-CD3 multispecific antibodies to NCI-H929 cells (BCMA+++), MM1S cells (BCMA++), and RPMI-8226 cells (BCMA+).

[5] = molecular target: T1, human BCMA on cells; experiment: flow cytometry, NCI-H929 cells
Procedure: as §1

[6] = molecular target: T2, T cell surface CD3 (human, UniProt P07766 23-207); experiment: flow cytometry, human CD3+ T cells
T2 construct: whole, on cells; also called CD3^+ T cells
Procedure: Human PBMC cells were sorted for CD3⁺ T cells using CD3 magnetic beads (Miltenyi, catalog No. 130-097-043): the cryopreserved PBMCs were thawed, and washed by centrifugation twice for counting. Running buffer (MACS, catalog No. 130-091-221) was added in a cell-to-buffer ratio of 10⁷:80 μL, CD3 beads were added in a cell-to-bead ratio of 10⁷:20 μL, and the mixture was mixed well and incubated at 4° C. for 15 min. The cells were washed with buffer in a cell-to-buffer ratio of 10⁷:1-2 mL. After centrifugation, the supernatant was discarded, and 500 μL of buffer was added to resuspend the cell pellet. The LS sorting column (Miltenyi, catalog No. 130-042-401) was placed on the MidiMACS Starting Kit (LS) magnetic rack (Miltenyi, catalog No. 130-091-051). After rinsing, the cell suspension was added and washed thrice. The LS sorting column was removed from the magnetic rack and placed on a clean centrifuge tube and 5 mL buffer was added to collect the sorted CD3⁺ T cells. After counting, the CD3⁺ T cells were adjusted to a cell density of 5×10⁶-10×10⁶ cells/mL using RPMI medium (Hyclone, catalog No. SH30809.01) containing 2% FBS (fetal bovine serum) and seeded in a 96-well U-bottom cell culture plate (Costar, catalog No. 3799) at 50 μL per well. The test antibodies at different concentrations were prepared using the medium described above. […] The antibodies at different concentrations were added to the 96-well cell culture plate described above at 50 μL per well, mixed well and incubated at 4° C. for 1 h. The cells were washed with pre-cooled running buffer (MACS, catalog No. 130-091-221), and the supernatant was discarded. Pre-cooled fluorescent labeled goat anti-human IgG antibodies (Jackson, catalog No. 109-116-170) were added, and the cells were resuspended at 100 μL per well, mixed well and incubated at 4° C. for 30 min. After washing, 100 μL of pre-cooled running buffer was added to resuspend the cells.

[7] = molecular target: T3, human BCMA protein (human, UniProt Q02223 1-54, limits assumed); experiment: SPR (Biacore T200), antibody captured by anti-hIgG, human BCMA as analyte, 1:1 model
T3 construct: also called hBCMA; Antigen BCMA
T3 sequence (looked up): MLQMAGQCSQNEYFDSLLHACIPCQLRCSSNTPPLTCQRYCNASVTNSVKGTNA
Procedure: (§2) The affinity of the test antibody for human CD3e or human BCMA protein was determined by Biacore T200 (GE) as follows:
(§3) The response signals were detected in real time using Biacore software, and association and dissociation curves were obtained. The buffer used in the experiment was Biacore universal buffer (137 mM NaCl, 2.7 mM KCl, 10 mM Na₂HPO₄.12H₂O, 1.8 mM KH₂PO₄. 0.05% surfactant P-20 (w/v), pH 7.4). […] The flow rate in the flow cell was at 50 μL/min, the association was performed for 240 s, the dissociation was performed for 1400 s, the regeneration was performed using 3 M MgCl (GE) for 60 s, and the baseline was stable. Results were obtained by calculation according to the affinity and kinetics 1:1 binding mode in biacore evaluation software.

[8] = molecular target: T4, human CD3e (Acro, Cat. No. CDE-H5223) (human, UniProt P07766 23-126); experiment: SPR (Biacore T200), antibody captured by anti-hIgG, human CD3e as analyte, 1:1 model
T4 construct: also called human CD3e protein; hCD3e
Procedure: as §2, §3

T2 sequence (P07766 23-207): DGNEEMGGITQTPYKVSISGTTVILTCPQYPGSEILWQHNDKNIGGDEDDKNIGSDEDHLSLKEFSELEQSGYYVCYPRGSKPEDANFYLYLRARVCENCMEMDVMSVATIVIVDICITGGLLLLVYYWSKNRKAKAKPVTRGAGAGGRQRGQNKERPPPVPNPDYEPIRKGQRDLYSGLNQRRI
T4 sequence (P07766 23-126 limits assumed): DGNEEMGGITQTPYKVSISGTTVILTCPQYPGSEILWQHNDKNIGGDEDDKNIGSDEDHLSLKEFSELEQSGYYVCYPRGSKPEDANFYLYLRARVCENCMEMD

Binder	Lysis EC50, NCI-H929 cells with human PBMCs (E:T 10:1, 24 h, LDH release) [1] [nM]	Maximum lysis rate, NCI-H929 cells with human PBMCs [1] [%]	Lysis EC50, MM1S cells with human PBMCs (E:T 10:1, 24 h, LDH release) [2] [nM]	Maximum lysis rate, MM1S cells with human PBMCs [2] [%]	Lysis EC50, RPMI-8226 cells with human PBMCs (E:T 10:1, 24 h, LDH release) [3] [nM]	Maximum lysis rate, RPMI-8226 cells with human PBMCs [3] [%]	EC50 [4] [nM]	Top(MFI) [4] [MFI]	EC50 [5] [nM]	Top(MFI) [5] [MFI]	EC50 [6] [nM]	Top(MFI) [6] [MFI]	Kd [7] [nM]	Kd [8] [nM]
B1	0.187	35	0.0407	36	0.0142	39	0.338	124000	0.837	223000	85.8	98400	0.0347	1.17
B2	0.0218	40	0.00937	21	0.0113	29	0.535	107000	1.56	186000	38.3	163000	0.0627	0.286
